Results from the supplement of paper PMC9112550, “Optimization of the antimicrobial peptide Bac7 by deep mutational scanning” (BMC Biology, 2022).

These sequences were tested on Escherichia coli TOP10 (assay: shrunken log2 fold change of peptide-encoding DNA abundance (4.5 h post-induction vs induction); higher = less antimicrobial activity (less host growth inhibition)). Details: time post-induction: 4.5 h; library: site-saturation at positions 5, 18, 19, 20.
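Further: peptides expressed intracellularly from a pBAD plasmid library in pooled LB shake-flask culture, induced with 0.3% L-arabinose, DNA abundance read by NGS, three biological replicates, DESeq2 with apeglm shrinkage.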

| Sequence | shrunken log2 fold change |
| --- | --- |
| RRIRHRPPRLPRPRPRPACHPRP | -0.2 |
| RRIRIRPPRLPRPRPRPNHTPRP | -0.541 |
| RRIRDRPPRLPRPRPRPVLGPRP | 0.162 |
| RRIRNRPPRLPRPRPRPHDNPRP | -0.511 |
| RRIRRRPPRLPRPRPRPVMSPRP | 0.042 |
| RRIRHRPPRLPRPRPRPFKRPRP | 0.0885 |
| RRIRTRPPRLPRPRPRPRKRPRP | 0.152 |
| RRIRQRPPRLPRPRPRPFIAPRP | -0.277 |
| RRIRVRPPRLPRPRPRPPDEPRP | 0.621 |
| RRIRDRPPRLPRPRPRPNRHPRP | -0.327 |
| RRIRFRPPRLPRPRPRPIDPPRP | -0.526 |
| RRIRVRPPRLPRPRPRPYMIPRP | -0.904 |
| RRIRLRPPRLPRPRPRPHGFPRP | 0.000509 |
| RRIRCRPPRLPRPRPRPAFHPRP | -0.389 |
| RRIRIRPPRLPRPRPRPQAQPRP | -0.108 |
| RRIRQRPPRLPRPRPRPYTMPRP | -0.128 |
| RRIRSRPPRLPRPRPRPFSWPRP | -0.197 |
| RRIRLRPPRLPRPRPRPYQQPRP | -0.18 |
| RRIRFRPPRLPRPRPRPLSSPRP | -0.307 |
| RRIRWRPPRLPRPRPRPIQWPRP | 0.25 |
| RRIRIRPPRLPRPRPRPTRHPRP | 0.0172 |
| RRIRHRPPRLPRPRPRPKGQPRP | -0.00141 |
| RRIRERPPRLPRPRPRPGFRPRP | 0.231 |
| RRIRIRPPRLPRPRPRPHACPRP | -1.14 |
| RRIRSRPPRLPRPRPRPTDKPRP | -0.242 |

| Sequence | shrunken log2 fold change |
| --- | --- |
| RRIRWRPPRLPRPRPRPAHYPRP | -0.145 |
| RRIRPRPPRLPRPRPRPWAVPRP | -0.227 |
| RRIRERPPRLPRPRPRPPYVPRP | -0.524 |
| RRIRMRPPRLPRPRPRPKIAPRP | 0.244 |
| RRIRMRPPRLPRPRPRPFMSPRP | 0.0642 |
| RRIRDRPPRLPRPRPRPDAHPRP | -0.036 |
| RRIRGRPPRLPRPRPRPQVYPRP | 0.23 |
| RRIRHRPPRLPRPRPRPNINPRP | -1.31 |
| RRIRIRPPRLPRPRPRPTCKPRP | -0.466 |
| RRIRQRPPRLPRPRPRPVTQPRP | -0.378 |
| RRIRRRPPRLPRPRPRPYAWPRP | 0.157 |
| RRIRPRPPRLPRPRPRPEVQPRP | 0.0715 |
| RRIRHRPPRLPRPRPRPIQMPRP | -0.00723 |
| RRIRRRPPRLPRPRPRPQVTPRP | -0.0275 |
| RRIRCRPPRLPRPRPRPCIMPRP | -0.336 |
| RRIRSRPPRLPRPRPRPGDQPRP | 0.0164 |
| RRIRPRPPRLPRPRPRPRTMPRP | 0.276 |
| RRIRLRPPRLPRPRPRPGWIPRP | 0.0964 |
| RRIRHRPPRLPRPRPRPIPQPRP | -0.126 |
| RRIRYRPPRLPRPRPRPRVSPRP | -0.216 |
| RRIRVRPPRLPRPRPRPNMHPRP | -0.332 |
| RRIRARPPRLPRPRPRPSKAPRP | -0.151 |
| RRIRARPPRLPRPRPRPWIGPRP | 0.15 |
| RRIRERPPRLPRPRPRPPSEPRP | 0.156 |
| RRIRHRPPRLPRPRPRPGWVPRP | 0.0965 |

| Sequence | shrunken log2 fold change |
| --- | --- |
| RRIRLRPPRLPRPRPRPWMTPRP | -0.0262 |
| RRIRQRPPRLPRPRPRPMIAPRP | -0.00222 |
| RRIRFRPPRLPRPRPRPTNGPRP | -0.137 |
| RRIRQRPPRLPRPRPRPPQRPRP | 0.655 |
| RRIRPRPPRLPRPRPRPLPIPRP | -0.301 |
| RRIRIRPPRLPRPRPRPSIIPRP | -0.866 |
| RRIRWRPPRLPRPRPRPQTWPRP | 0.223 |
| RRIRTRPPRLPRPRPRPSMEPRP | -0.136 |
| RRIRPRPPRLPRPRPRPHNSPRP | -0.454 |
| RRIRPRPPRLPRPRPRPLWIPRP | -0.128 |
| RRIRWRPPRLPRPRPRPTNGPRP | -0.134 |
| RRIRCRPPRLPRPRPRPSKSPRP | -0.0548 |
| RRIRQRPPRLPRPRPRPKWIPRP | -0.0524 |
| RRIRQRPPRLPRPRPRPNKLPRP | -0.0898 |
| RRIRIRPPRLPRPRPRPIRAPRP | -0.634 |
| RRIRHRPPRLPRPRPRPKFVPRP | -0.0479 |
| RRIRARPPRLPRPRPRPYHRPRP | -0.047 |
| RRIRHRPPRLPRPRPRPWCYPRP | -0.297 |
| RRIRSRPPRLPRPRPRPWHEPRP | -0.103 |
| RRIRRRPPRLPRPRPRPQYPPRP | -0.444 |
| RRIRKRPPRLPRPRPRPLVAPRP | 0.805 |
| RRIRMRPPRLPRPRPRPWPFPRP | 0.0942 |
| RRIRKRPPRLPRPRPRPNYVPRP | -0.087 |
| RRIRRRPPRLPRPRPRPTKVPRP | 0.118 |
| RRIRKRPPRLPRPRPRPVWRPRP | 0.0611 |

| Sequence | shrunken log2 fold change |
| --- | --- |
| RRIRTRPPRLPRPRPRPYEDPRP | -0.0155 |
| RRIRSRPPRLPRPRPRPMPTPRP | 0.358 |
| RRIRVRPPRLPRPRPRPSRPPRP | 0.196 |
| RRIRSRPPRLPRPRPRPCYPPRP | -0.264 |
| RRIRGRPPRLPRPRPRPVVEPRP | 0.937 |
| RRIRWRPPRLPRPRPRPEYWPRP | 0.388 |
| RRIRARPPRLPRPRPRPCMKPRP | -0.167 |
| RRIRTRPPRLPRPRPRPWWSPRP | -0.143 |
| RRIRWRPPRLPRPRPRPAQFPRP | 0.248 |
| RRIRMRPPRLPRPRPRPEPDPRP | 1.12 |
| RRIRTRPPRLPRPRPRPIEYPRP | -0.233 |
| RRIRHRPPRLPRPRPRPGWMPRP | 0.0172 |
| RRIRKRPPRLPRPRPRPFYQPRP | -0.101 |
| RRIRGRPPRLPRPRPRPNTIPRP | -0.184 |
| RRIRMRPPRLPRPRPRPHWTPRP | -0.106 |
| RRIRERPPRLPRPRPRPDWPPRP | 0.108 |
| RRIRTRPPRLPRPRPRPRLTPRP | -0.00933 |
| RRIRDRPPRLPRPRPRPYHYPRP | -0.688 |
| RRIRVRPPRLPRPRPRPCEMPRP | 1.45 |
| RRIRPRPPRLPRPRPRPCQNPRP | -0.0169 |
| RRIRFRPPRLPRPRPRPKTCPRP | 0.0353 |
| RRIRTRPPRLPRPRPRPYCMPRP | -1.28 |
| RRIRMRPPRLPRPRPRPMSDPRP | -0.095 |
| RRIRCRPPRLPRPRPRPQKTPRP | -0.162 |
| RRIRARPPRLPRPRPRPLTFPRP | -0.203 |

| Sequence | shrunken log2 fold change |
| --- | --- |
| RRIRKRPPRLPRPRPRPMITPRP | -0.278 |
| RRIRSRPPRLPRPRPRPEQRPRP | -0.011 |
| RRIRMRPPRLPRPRPRPCKDPRP | -0.0302 |
| RRIRQRPPRLPRPRPRPAPPPRP | 0.702 |
| RRIRQRPPRLPRPRPRPCYRPRP | -0.00251 |
| RRIRARPPRLPRPRPRPNQNPRP | 0.0844 |
| RRIRPRPPRLPRPRPRPVYVPRP | -0.167 |
| RRIRQRPPRLPRPRPRPMFDPRP | -0.109 |
| RRIRIRPPRLPRPRPRPMMRPRP | 0.116 |
| RRIRKRPPRLPRPRPRPIIRPRP | -0.59 |
| RRIRARPPRLPRPRPRPPNMPRP | -0.0722 |
| RRIRYRPPRLPRPRPRPTPSPRP | 0.421 |
| RRIRYRPPRLPRPRPRPEPYPRP | -0.288 |
| RRIRNRPPRLPRPRPRPIPKPRP | -0.0467 |
| RRIRARPPRLPRPRPRPILTPRP | 0.0217 |
| RRIRDRPPRLPRPRPRPFDGPRP | -0.192 |
| RRIRVRPPRLPRPRPRPWEQPRP | -0.355 |
| RRIRERPPRLPRPRPRPQLEPRP | -0.0385 |
| RRIRHRPPRLPRPRPRPFGYPRP | -0.133 |
| RRIRDRPPRLPRPRPRPLMGPRP | 0.0162 |
| RRIRNRPPRLPRPRPRPHKNPRP | -0.237 |
| RRIRMRPPRLPRPRPRPDTNPRP | 1.3 |
| RRIRARPPRLPRPRPRPSGPPRP | 0.0223 |
| RRIRLRPPRLPRPRPRPHYEPRP | -0.762 |
| RRIRNRPPRLPRPRPRPVGDPRP | 0.0156 |

| Sequence | shrunken log2 fold change |
| --- | --- |
| RRIRWRPPRLPRPRPRPGNNPRP | 0.1 |
| RRIRYRPPRLPRPRPRPVSTPRP | -0.511 |
| RRIRTRPPRLPRPRPRPYSHPRP | -0.04 |
| RRIRHRPPRLPRPRPRPLEGPRP | 0.0244 |
| RRIRQRPPRLPRPRPRPDWSPRP | -0.0861 |
| RRIRNRPPRLPRPRPRPSINPRP | -0.537 |
| RRIRWRPPRLPRPRPRPMPNPRP | -0.0767 |
| RRIRKRPPRLPRPRPRPTHKPRP | 0.658 |
| RRIRMRPPRLPRPRPRPTHPPRP | 0.564 |
| RRIRKRPPRLPRPRPRPCNVPRP | -0.192 |
| RRIRCRPPRLPRPRPRPHPYPRP | -0.296 |
| RRIRDRPPRLPRPRPRPDFRPRP | -0.0735 |
| RRIRRRPPRLPRPRPRPMFDPRP | 0.195 |
| RRIRSRPPRLPRPRPRPCLIPRP | -0.197 |
| RRIRMRPPRLPRPRPRPPGGPRP | 1.15 |
| RRIRGRPPRLPRPRPRPDLDPRP | 1.21 |
| RRIRKRPPRLPRPRPRPRRCPRP | 0.444 |
| RRIRRRPPRLPRPRPRPLYIPRP | -0.466 |
| RRIRARPPRLPRPRPRPRCNPRP | 0.197 |
| RRIRQRPPRLPRPRPRPQMKPRP | -0.264 |
| RRIRPRPPRLPRPRPRPRELPRP | 0.39 |
| RRIRDRPPRLPRPRPRPKTEPRP | -0.0167 |
| RRIRTRPPRLPRPRPRPDVQPRP | 0.0493 |
| RRIRIRPPRLPRPRPRPHFRPRP | -0.555 |
| RRIRVRPPRLPRPRPRPQRLPRP | 0.275 |
